Bridge positions count the residues as written; N and C are the ends. Square brackets hold non-standard residues; d marks the D form. Primed or numbered codes have the meaning given here. Side chains are listed from the residue outwards. PEG4″ = PEG chain having 4 ethylene glycol repeat units; 4‑arm scaffold = not defined here
Legend:
Experiment in all cases: cell-based or functional assay
[1] = biological target: T1, HIV-1 gp41 of strain HXB2 (HIV-1 strain HXB2, UniProt P04578 512-856)
[2] = biological target: HIV-1 gp41 of strain JRFL (HIV-1 strain JRFL)
[3] = biological target: T1, HIV-1 gp41 of strain HXB2; remark: listed apart in the source
[4] = biological target: HIV-1 gp41 of strain JRFL (HIV-1 strain JRFL); remark: listed apart in the source

B1: Palmitate-conjugated PIE12-trimer (peptide)
peptide: Ac-[dH][dP][dC][dD][dY][dP][dE][dW][dQ][dW][dL][dC][dE][dL]G[dK]([PEG4″-4‑arm scaffold])-NH2
modifications: disulfide 3-12 (inferred); reading uncertain; also: trimer: three PIE12 monomers on 4-arm scaffold, fourth arm PEG24 with D-cysteine bridge carrying palmitate
For B1, the “fold increase in potency against unconjugated PIE12-trimer (HXB2)” value [1] was 3 to 4 fold, the “fold increase in potency against unconjugated PIE12-trimer (JRFL)” value [2] was 3 to 4 fold and the “Antiviral potency, IC50, HXB2 pseudovirion entry assay” value [3] was 0.225 nM. For the same binder, the “Antiviral potency, IC50, JRFL pseudovirion entry assay” value [4] was 0.54 nM.

B2: CPT24-5 kD (peptide)
peptide: Ac-[dH][dP][dC][dD][dY][dP][dE][dW][dQ][dW][dL][dC][dE][dL]G[dK]([PEG4″-4‑arm scaffold])-NH2
modifications: disulfide 3-12 (inferred); reading uncertain; also: PIE12 trimer on 4-arm scaffold, fourth arm 5 kDa linear polydisperse PEG with thiocholesterol
In the case of B2, the “Antiviral potency, IC50, JRFL pseudovirion entry assay” value [4] is reported as 0.026 nM.

B3: 40 kD PEG-PEG24-PIE12 trimer (peptide)
peptide: Ac-[dH][dP][dC][dD][dY][dP][dE][dW][dQ][dW][dL][dC][dE][dL]GK-NH2
modifications: disulfide 3-12 (inferred); not fully specified (residue 16); also: trimer: three PIE12 monomers on 4-arm scaffold, fourth arm PEG24 carrying 40 kDa Y-branched PEG
In the case of B3, the “fold reduction of potency against unconjugated PIE12-trimer (HXB2)” value [1] is reported as 13 fold, the “fold reduction of potency against unconjugated PIE12-trimer (JRFL)” value [2] is reported as 34 fold and the “Antiviral potency, IC50, HXB2 pseudovirion entry assay” value [3] is reported as 9.5 nM. The “Antiviral potency, IC50, JRFL pseudovirion entry assay” value [4] was 71 nM.

From patent publication US20190023748A1 (NAVIGEN, published 2019)
